# Source: PMC3402150, “An endogenous factor enhances ferulic acid decarboxylation catalyzed by phenolic acid decarboxylase from Candida guilliermondii” (AMB Express, 2012)
# Tested on: COc1cc(/C=C/C(=O)O)ccc1O
# Experiment: purified protein
# Settings: control without ultrafiltrate activator, general assay 0.1 M sodium phosphate pH 6.0, 25°C
substance,measurement,value
CgPAD (phenolic acid decarboxylase) (Meyerozyma guilliermondii),Km,5.31 mM
same,kcat,89.7 s⁻¹
